According to ChEMBL document CHEMBL2074313, “Polyspecific substrate uptake by the hepatic organic anion transporter Oatp1 in stably transfected CHO cells” (Am J Physiol, 1999):

How the values were obtained:
Assay type in all cases: functional, cell-based
[1] = target: T1, Oatp1 (Solute carrier organic anion transporter family member 1A1) (Rattus norvegicus, UniProt P46720); assay: (§1) TP_TRANSPORTER: uptake in Oatp1-expressing CHO-03 cell; conditions: hamster, CHO-03 cells expressing Oatp1
T1 sequence (P46720 whole entry): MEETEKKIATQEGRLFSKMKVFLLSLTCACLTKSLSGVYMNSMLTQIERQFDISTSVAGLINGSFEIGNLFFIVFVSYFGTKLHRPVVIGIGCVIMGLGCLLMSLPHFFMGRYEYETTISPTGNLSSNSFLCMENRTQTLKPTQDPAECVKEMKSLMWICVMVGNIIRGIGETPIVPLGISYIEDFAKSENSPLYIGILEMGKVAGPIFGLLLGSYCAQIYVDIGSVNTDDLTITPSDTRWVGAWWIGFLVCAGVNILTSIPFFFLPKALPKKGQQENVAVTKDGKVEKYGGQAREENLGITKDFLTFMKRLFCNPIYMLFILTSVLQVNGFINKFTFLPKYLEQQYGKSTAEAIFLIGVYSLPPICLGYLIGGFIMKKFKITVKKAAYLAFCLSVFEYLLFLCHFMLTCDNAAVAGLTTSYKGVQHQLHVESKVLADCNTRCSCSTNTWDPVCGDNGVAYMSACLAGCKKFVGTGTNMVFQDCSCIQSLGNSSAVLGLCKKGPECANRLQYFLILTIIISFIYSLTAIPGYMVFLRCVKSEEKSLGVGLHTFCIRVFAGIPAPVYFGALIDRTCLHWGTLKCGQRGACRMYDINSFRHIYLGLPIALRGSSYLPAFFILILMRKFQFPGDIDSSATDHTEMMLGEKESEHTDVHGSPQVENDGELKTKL

[2] = substrate: COc1cc(C)c(S(=O)(=O)N[C@@H](CC(=O)O)C(=O)N[C@H](Cc2ccc(C(=N)N)cc2)C(=O)N2CCCCC2)c(C)c1C; assay: as §1
[3] = substrate: C[C@H](CCC(=O)NCCS(=O)(=O)O)[C@H]1CC[C@H]2[C@@H]3[C@@H](O)C[C@@H]4C[C@H](O)CC[C@]4(C)[C@H]3CC[C@]12C; assay: as §1
[4] = substrate: C[C@H](CCC(=O)NCCS(=O)(=O)O)[C@H]1CC[C@H]2[C@@H]3[C@H](O)C[C@@H]4C[C@H](O)CC[C@]4(C)[C@H]3CC[C@]12C; assay: as §1
[5] = substrate: C[C@]12CC[C@@H]3c4ccc(O)cc4CC[C@H]3[C@@H]1CC[C@@H]2O[C@@H]1O[C@H](C(=O)O)[C@@H](O)[C@H](O)[C@H]1O; assay: as §1
[6] = substrate: C[C@]12CC[C@@H]3c4ccc(OS(=O)(=O)O)cc4CC[C@H]3[C@@H]1CCC2=O; assay: as §1
[7] = substrate: O=C1OC(c2ccc(O)c(S(=O)(=O)O)c2)(c2ccc(O)c(S(=O)(=O)O)c2)c2c(Br)c(Br)c(Br)c(Br)c21; assay: as §1
[8] = substrate: [H][C@@]12CC=C3C[C@@H](OS(=O)(=O)O)CC[C@]3(C)[C@@]1([H])CC[C@]1(C)C(=O)CC[C@@]21[H]; assay: as §1

## C[C@@H]1O[C@@H](O[C@H]2C[C@@H](O)[C@]3(CO)[C@H]4[C@H](O)C[C@]5(C)[C@@H](C6=CC(=O)OC6)CC[C@]5(O)[C@@H]4CC[C@]3(O)C2)[C@H](O)[C@H](O)[C@H]1O [OUABAIN]
[1]
  Km: 3000 µM

## C[C@@H]1Cc2c(Cl)cc(C(=O)N[C@@H](Cc3ccccc3)C(=O)O)c(O)c2C(=O)O1 [3R14S-OCHRATOXIN A]
[1]
  Km: 29 µM

B1: Solute carrier organic anion transporter family member 1A1 (Rattus norvegicus) (protein)
chain: T1 sequence (P46720 whole entry)
[2]
  Km: 57 µM
[3]
  Km: 13 µM
[4]
  Km: 7 µM
[5]
  Km: 4 µM
[6]
  Km: 11 µM
[7]
  Km: 3 µM
[8]
  Km: 5 µM
